B1: Pig heart mitochondrial malate dehydrogenase (MDH) (natural protein)
chain: AKVAVLGASGGIGQPLSLLLKNSPLVSRLTLYDIAHTPGVAADLSHIETRATVKGYLGPEQLPDCLKGCDVVVIPAGVPRKPGMTRDDLFNTNATIVATLTAACAQHCPDAMICIISNPVNSTIPITAEVFKKHGVYNPNKIFGVTTLDIVRANAFVAELKGLDPARVSVPVIGGHAGKTIIPLISQCTPKVDFPQDQLSTLTGRIQEAGTEVVKAKAGAGSATLSMAYAGARFVFSLVDAMNGKEGVVECSFVKSQETDCPYFSTPLLLGKKGIEKNLGIGKISPFEEKMIAEAIPELKASIKKGEEFVKNMK
B2: mature recombinant OTC (rat ornithine transcarbamylase) (natural protein)
chain: SQVQLKGRDLLTLKNFTGEEIQYMLWLSADLKFRIKQKGEYLPLLQGKSLGMIFEKRSTRTRLSTETGFALLGGHPSFLTTQDIHLGVNESLTDTARVLSSMTDAVLARVYKQSDLDILAKEATIPIVNGLSDLYHPIQILADYLTLQEHYGSLKGLTLSWIGDGNNILHSIMMSAAKFGMHLQAATPKGYEPDPNIVKLAEQYAKENGTRLSMTNDPLEAARGGNVLITDTWISMGQEDEKKKRLQAFQGYQVTMKTAKVAASDWTFLHCLPRKPEEVDDEVFYSPRSLVFPEAENRKWTIMAVMVSLLTDYSPVLQKPKF

Target: T1, LONM (human mitochondrial matrix AAA+ protease) (human (endogenous in HeLa)) (UniProt P36776)
T1 sequence: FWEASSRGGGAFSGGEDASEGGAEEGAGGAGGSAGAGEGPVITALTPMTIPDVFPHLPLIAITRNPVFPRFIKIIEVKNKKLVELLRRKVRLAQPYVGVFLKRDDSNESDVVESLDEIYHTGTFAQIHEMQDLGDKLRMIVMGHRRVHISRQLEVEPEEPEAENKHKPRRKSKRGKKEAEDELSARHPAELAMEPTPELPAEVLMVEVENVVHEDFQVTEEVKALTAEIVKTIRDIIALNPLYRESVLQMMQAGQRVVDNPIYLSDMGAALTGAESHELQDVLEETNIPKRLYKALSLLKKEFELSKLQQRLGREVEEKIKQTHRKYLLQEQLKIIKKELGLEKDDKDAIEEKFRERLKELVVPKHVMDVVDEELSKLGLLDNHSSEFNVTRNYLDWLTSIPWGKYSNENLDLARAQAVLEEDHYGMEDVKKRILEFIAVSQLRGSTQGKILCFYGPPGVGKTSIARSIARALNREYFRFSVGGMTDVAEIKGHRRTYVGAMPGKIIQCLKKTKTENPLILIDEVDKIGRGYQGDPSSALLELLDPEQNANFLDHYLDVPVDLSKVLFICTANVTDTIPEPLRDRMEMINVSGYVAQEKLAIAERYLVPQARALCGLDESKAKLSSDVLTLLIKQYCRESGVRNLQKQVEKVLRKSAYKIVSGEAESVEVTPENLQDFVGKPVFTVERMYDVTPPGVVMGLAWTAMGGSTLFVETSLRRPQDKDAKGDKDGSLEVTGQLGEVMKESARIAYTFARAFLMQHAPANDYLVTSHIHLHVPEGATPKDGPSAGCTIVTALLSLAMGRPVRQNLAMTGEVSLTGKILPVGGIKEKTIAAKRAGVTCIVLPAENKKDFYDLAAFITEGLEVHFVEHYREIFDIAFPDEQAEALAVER

Row | Binder | half-life of guanidine-unfolded MDH (MDHU) in in vitro degradation by purified recombinant LONM with ATP | half-life of guanidine-unfolded OTC (OTCU) in in vitro degradation by purified recombinant LONM with ATP
1 | B1 | 4 min | 
2 | B2 |  | 15 min

From article PMC4667172
